From article PMC1868955, “Crystal Structure of the P Pilus Rod Subunit PapA” (PLoS Pathogens, 2007) come the findings set out here.

Data set [1] concerns the molecule itself. Put plainly: SEC; gel filtration of co-expressed PapDHis/PapA complexes immediately after purification; Superdex75 120 ml, 20 mM TrisHCl pH 7.5, 20 mM NaCl. For orientation: Size exclusion chromatography separates by hydrodynamic size, large species first.
Data set [2] deals with the molecule itself. Put plainly: negative-stain electron microscopy; PapD/PapA samples frozen and thawed five times at 150 μg/ml in 10–20 mM TrisHCl pH 7.6, 20–50 mM NaCl; used the same day or kept at 4 °C up to 40 d; 1% uranyl acetate.

B1: PapA Ntd1 (residues 2 to 8 deleted) (natural protein)
chain: AGKVTFNGTVVDAPCSISQKSADQSIDFGQLSKSFLEAGGVSKPMDLDIELVNCDITAFKGGNGAKKGTVKLAFTGPIVNGHSDELDTNGGTGTAIVVQGAGKNVVFDGSEGDANTLKDGENVLHYTAVVKKSSAVGAAVTEGAFSAVANFNLTYQ
notes: also called Ntd1 (Δ2–8); source: E. coli C600, co-expressed with PapDHis
With B1, in data set [1], the binding result was “binds”.

B2: PapA Ntd1 G15N T101L (residues 2 to 8 deleted, G15N, T101L) (natural protein)
chain: AGKVTFNNTVVDAPCSISQKSADQSIDFGQLSKSFLEAGGVSKPMDLDIELVNCDITAFKGGNGAKKGTVKLAFTGPIVNGHSDELDTNGGTGLAIVVQGAGKNVVFDGSEGDANTLKDGENVLHYTAVVKKSSAVGAAVTEGAFSAVANFNLTYQ
notes: Two copies stand in the PapD/(PapA)2 complex: one donor-strand complemented by PapD (dscPapA), one donor-strand exchanged with the Nte of the first (dsePapA); also called dscPapA; dsePapA; source: E. coli C600, co-expressed with PapDHis
Turning to B2, the binding result in data set [1] was “binds”.

B3: PapA G15N (natural protein)
chain: APTIPQGQGKVTFNNTVVDAPCSISQKSADQSIDFGQLSKSFLEAGGVSKPMDLDIELVNCDITAFKGGNGAKKGTVKLAFTGPIVNGHSDELDTNGGTGTAIVVQGAGKNVVFDGSEGDANTLKDGENVLHYTAVVKKSSAVGAAVTEGAFSAVANFNLTYQ
notes: source: E. coli C600, co-expressed with PapDHis
In the case of B3, the binding result in data set [1] was “binds”.

B4: PapA I4G (natural protein)
chain: APTGPQGQGKVTFNGTVVDAPCSISQKSADQSIDFGQLSKSFLEAGGVSKPMDLDIELVNCDITAFKGGNGAKKGTVKLAFTGPIVNGHSDELDTNGGTGTAIVVQGAGKNVVFDGSEGDANTLKDGENVLHYTAVVKKSSAVGAAVTEGAFSAVANFNLTYQ
notes: as for B3
Regarding B4, the binding result in data set [2] is “binds”.

B5: PapA I4G G15N (natural protein)
chain: APTGPQGQGKVTFNNTVVDAPCSISQKSADQSIDFGQLSKSFLEAGGVSKPMDLDIELVNCDITAFKGGNGAKKGTVKLAFTGPIVNGHSDELDTNGGTGTAIVVQGAGKNVVFDGSEGDANTLKDGENVLHYTAVVKKSSAVGAAVTEGAFSAVANFNLTYQ
notes: as for B3
In the case of B5, the binding result in data set [1] is recorded as “binds”.
